Data as given in publication doi:10.1101/2020.01.02.893370 (bioRxiv, 2020).

Tests used:
[1] = biological target: E. coli RNA polymerase β′ subunit (E. coli, UniProt P0A8T7 1-1407); test: cryo-EM structure
[2] = biological target: sigma70 (RpoD);RNAP core enzyme wild type (alpha2 beta beta' omega) (Escherichia coli;Escherichia coli, UniProt P00579;P0A7Z4;P0A8V2;P0A8T7;P0A800 1-613;1-329;1-1342;1-1407;1-91, |); test: DNase I footprinting
sigma70 (RpoD);RNAP core enzyme wild type (alpha2 beta beta' omega), sequence (P00579 whole entry, chain 1 of 4): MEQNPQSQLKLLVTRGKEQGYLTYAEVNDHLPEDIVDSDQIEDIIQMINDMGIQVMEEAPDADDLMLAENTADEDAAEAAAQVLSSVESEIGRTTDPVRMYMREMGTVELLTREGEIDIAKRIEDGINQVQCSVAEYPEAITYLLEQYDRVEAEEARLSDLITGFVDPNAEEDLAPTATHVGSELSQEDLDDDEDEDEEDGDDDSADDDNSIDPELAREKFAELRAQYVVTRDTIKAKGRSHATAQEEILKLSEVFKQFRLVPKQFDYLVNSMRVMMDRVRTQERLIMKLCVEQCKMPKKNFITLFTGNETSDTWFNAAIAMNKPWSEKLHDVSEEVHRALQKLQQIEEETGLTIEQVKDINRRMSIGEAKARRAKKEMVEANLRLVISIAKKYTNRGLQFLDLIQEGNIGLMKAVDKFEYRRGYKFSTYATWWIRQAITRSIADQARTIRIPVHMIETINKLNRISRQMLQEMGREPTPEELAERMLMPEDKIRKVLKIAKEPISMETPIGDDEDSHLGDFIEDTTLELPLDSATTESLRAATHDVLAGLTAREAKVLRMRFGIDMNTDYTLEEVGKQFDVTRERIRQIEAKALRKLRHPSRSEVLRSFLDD
sigma70 (RpoD);RNAP core enzyme wild type (alpha2 beta beta' omega), sequence (P0A7Z4 whole entry, chain 2 of 4): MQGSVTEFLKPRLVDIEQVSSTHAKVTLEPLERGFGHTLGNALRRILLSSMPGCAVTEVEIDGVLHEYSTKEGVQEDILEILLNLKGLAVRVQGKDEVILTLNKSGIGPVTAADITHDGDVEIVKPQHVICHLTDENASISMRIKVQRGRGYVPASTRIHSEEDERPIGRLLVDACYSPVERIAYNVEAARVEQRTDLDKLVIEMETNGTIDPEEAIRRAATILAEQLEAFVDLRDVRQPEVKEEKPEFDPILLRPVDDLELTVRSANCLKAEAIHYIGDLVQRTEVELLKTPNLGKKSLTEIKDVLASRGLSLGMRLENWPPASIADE
sigma70 (RpoD);RNAP core enzyme wild type (alpha2 beta beta' omega), sequence (P0A8V2 whole entry, chain 3 of 4): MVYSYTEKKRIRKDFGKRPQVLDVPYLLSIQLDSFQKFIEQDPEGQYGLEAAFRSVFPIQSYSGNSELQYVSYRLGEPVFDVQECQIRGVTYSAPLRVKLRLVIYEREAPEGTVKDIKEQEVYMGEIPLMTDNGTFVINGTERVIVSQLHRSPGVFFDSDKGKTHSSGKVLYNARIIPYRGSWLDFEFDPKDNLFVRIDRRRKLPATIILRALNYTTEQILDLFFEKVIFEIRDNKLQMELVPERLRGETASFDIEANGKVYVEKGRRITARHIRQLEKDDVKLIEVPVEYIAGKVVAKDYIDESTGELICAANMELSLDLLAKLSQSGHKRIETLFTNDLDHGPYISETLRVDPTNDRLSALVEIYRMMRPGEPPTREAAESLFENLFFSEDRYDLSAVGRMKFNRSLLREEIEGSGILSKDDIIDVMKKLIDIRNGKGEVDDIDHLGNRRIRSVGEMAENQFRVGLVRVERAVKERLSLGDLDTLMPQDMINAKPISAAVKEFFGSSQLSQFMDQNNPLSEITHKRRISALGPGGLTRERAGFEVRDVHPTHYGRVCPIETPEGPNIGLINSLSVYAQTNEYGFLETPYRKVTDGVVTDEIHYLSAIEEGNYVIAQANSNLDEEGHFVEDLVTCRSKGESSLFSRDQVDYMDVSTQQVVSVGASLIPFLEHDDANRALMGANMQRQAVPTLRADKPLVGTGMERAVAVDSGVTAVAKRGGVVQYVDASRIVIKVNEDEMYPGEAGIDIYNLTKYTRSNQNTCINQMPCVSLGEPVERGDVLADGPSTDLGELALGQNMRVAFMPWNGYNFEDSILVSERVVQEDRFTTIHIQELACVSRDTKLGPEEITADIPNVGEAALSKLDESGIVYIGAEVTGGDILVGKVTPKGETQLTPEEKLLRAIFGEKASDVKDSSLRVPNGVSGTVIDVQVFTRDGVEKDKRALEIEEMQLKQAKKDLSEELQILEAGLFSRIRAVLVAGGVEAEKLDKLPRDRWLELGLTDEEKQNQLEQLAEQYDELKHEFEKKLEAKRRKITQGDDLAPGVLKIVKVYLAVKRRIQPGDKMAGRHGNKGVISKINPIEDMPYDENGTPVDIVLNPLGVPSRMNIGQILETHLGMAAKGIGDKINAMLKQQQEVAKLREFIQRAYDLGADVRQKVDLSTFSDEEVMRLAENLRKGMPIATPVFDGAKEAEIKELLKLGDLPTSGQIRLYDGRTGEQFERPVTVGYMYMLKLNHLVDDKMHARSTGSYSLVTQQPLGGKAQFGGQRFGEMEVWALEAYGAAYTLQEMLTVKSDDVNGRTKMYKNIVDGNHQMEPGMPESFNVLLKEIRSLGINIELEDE
sigma70 (RpoD);RNAP core enzyme wild type (alpha2 beta beta' omega), sequence (P0A800 whole entry, chain 5 of 4): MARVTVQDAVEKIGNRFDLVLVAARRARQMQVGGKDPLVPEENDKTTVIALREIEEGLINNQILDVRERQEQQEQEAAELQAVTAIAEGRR

E. coli RNA polymerase β′ subunit, sequence (P0A8T7 whole entry): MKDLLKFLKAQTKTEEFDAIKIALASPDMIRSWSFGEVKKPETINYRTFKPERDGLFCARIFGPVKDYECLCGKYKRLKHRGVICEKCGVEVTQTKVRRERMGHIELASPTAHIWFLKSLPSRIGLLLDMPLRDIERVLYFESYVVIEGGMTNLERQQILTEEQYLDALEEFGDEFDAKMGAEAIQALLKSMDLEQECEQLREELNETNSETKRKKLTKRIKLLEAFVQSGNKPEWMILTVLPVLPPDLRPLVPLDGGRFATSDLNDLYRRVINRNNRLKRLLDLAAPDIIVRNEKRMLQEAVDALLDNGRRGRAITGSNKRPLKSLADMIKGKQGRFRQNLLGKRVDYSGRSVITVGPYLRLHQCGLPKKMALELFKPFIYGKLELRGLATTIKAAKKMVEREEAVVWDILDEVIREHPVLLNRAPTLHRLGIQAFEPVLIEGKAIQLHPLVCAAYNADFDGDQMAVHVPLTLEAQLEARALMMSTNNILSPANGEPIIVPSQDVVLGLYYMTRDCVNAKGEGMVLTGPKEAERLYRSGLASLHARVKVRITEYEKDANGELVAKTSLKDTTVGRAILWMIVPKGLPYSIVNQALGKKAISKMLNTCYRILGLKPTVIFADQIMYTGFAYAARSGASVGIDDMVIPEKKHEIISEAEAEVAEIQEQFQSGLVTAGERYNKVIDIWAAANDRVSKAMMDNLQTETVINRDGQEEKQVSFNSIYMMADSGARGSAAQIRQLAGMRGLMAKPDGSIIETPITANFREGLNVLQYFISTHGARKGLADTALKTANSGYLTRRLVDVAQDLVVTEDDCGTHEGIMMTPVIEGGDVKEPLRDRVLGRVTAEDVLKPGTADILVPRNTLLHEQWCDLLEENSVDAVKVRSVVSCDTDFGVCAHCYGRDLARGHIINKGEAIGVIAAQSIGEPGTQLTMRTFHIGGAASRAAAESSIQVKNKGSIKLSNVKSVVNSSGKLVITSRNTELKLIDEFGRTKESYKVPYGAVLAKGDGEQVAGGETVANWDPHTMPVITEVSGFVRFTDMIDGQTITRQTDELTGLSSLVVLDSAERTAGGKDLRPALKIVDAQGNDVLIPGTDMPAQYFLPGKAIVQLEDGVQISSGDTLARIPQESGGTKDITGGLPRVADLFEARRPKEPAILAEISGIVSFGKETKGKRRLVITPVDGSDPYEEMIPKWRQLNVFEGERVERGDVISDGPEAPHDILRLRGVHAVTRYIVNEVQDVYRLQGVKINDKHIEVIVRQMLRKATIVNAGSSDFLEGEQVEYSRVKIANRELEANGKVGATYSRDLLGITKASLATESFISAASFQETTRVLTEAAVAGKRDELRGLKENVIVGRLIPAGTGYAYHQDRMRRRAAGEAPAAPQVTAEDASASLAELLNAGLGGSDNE

B1: E. coli σ^28 factor (natural protein, UniProt P0AEM6 1-239, looked up)
chain: MNSLYTAEGVMDKHSLWQRYVPLVRHEALRLQVRLPASVELDDLLQAGGIGLLNAVERYDALQGTAFTTYAVQRIRGAMLDELRSRDWVPRSVRRNAREVAQAIGQLEQELGRNATETEVAERLGIDIADYRQMLLDTNNSQLFSYDEWREEHGDSIELVTDDHQRENPLQQLLDSNLRQRVMEAIETLPEREKLVLTLYYQEELNLKEIGAVLEVGESRVSQLHSQAIKRLRTKLGKL
B1: binds [1].

B2: lacUV5p (dsDNA)
DNA 1: CCCGCCGACAGGTTTCCCGACTGGAAAGCGGGCAGTGAGCGCAACGCAATTAATGTGAGTTAGCTCACTCATTAGGCACCCCAGGCTTTACACTTTATGCTTCCGGCTCGTATAATGTGTGGAATTGTGAGCGGATAACAATTTCACACAGGAAACAGCTATGACCATGGGCGCGG
DNA 2: CCGCGCCCATGGTCATAGCTGTTTCCTGTGTGAAATTGTTATCCGCTCACAATTCCACACATTATACGAGCCGGAAGCATAAAGTGTAAAGCCTGGGGTGCCTAATGAGTGAGCTAACTCACATTAATTGCGTTGCGCTCACTGCCCGCTTTCCAGTCGGGAAACCTGTCGGCGGG
B2: binds [2].
